From US20140308707A1, “METHOD FOR PRODUCTION OF FACTOR VIII” (Novo Nordisk A/S, priority 2011, published 2014)
Values joined by “and” are separate entries in the source; they are usually repeats but may differ in a detail not shown here. Identical values can stand only once.

Legend:
[1] = tested on: cell membrane of HEK293 cells; assay: Homologous competition assay: binding of 125I-BDD-FVIII to the cell membrane with blocking agents; conditions: for % of total binding: 0.5 nM 125I-FVIII, 4° C., 2 hours, Annexin V 500 nM, OPLS 20 mM, Heparin 100 ug/mL, RAP 500 nM; for reduction of membrane attached FVIII: same experiment as Table 2
Method: The affinity of purified B-domain deleted factor VIII (BDD-FVIII) (kindly provided by J. Karlsson and L. Thim, Novo Nordisk A/S) to the cell membrane of HEK293 cells was investigated by a homologous competition assay using ^125I-BDD-FVIII and unlabelled BDD-FVIII. Cells were washed once in PBS+1% BSA. 5×10^5 cells were distributed to a microtiter well and the plate was cooled to 4° C. During blocking of the cell surface, binding of BDD-FVIII was examined. A constant concentration of ^125I-FVIII (0.5 nM) was added simultaneously with either Annexin V (0.5 μM, Sigma), Ortho-Phospho-L-serine (20 mM, Sigma), Heparin (100 μg mL-1, Leo Pharmaceuticals), and Receptor Associated Protein (RAP) 0.5 μM (kindly provided by H. H. Petersen, Novo Nordisk A/S) at 4° C. to prevent endocytosis.
The plate was incubated at 4° C. for 2 hours with gentle shaking. After centrifugation unbound (non-membrane attached) ^125I-FVIII was removed and cells were washed twice in ice-cold assay buffer (10 mM HEPES, 150 mM NaCl, 4 mM KCl, 11 mM glucose, 5 mM CaCl2, 1 mg ml^−1 BSA, pH 7.4). Surface bound ^125I-FVIII was counted on a gamma-counter. The experiments were performed twice in triplicate. Non-specific binding was estimated in the presence of 12000× excess of unlabeled BDD Factor VIII.
In an attempt to determine potent inhibitors of the cell membrane interaction, four proteins known for their specific effect in either: 1) blocking phosphatidylserine (annexin V), 2) interacting with the C2 domain of FVIII (OPLS), 3) interacting with receptors that facilitate internalisation followed by degradation such as LRP (Lipoprotein receptor-related protein) and HSPGs (heparin sulphate proteoglycans) were tested (RAP, heparin).

[2] = tested on: CHO DUKX B11 cells stably expressing BDD-FVIII; assay: FVIII membrane displacement cell cultures (additives in culture medium, culture fluid and membrane bound fraction assayed); assay type: cell-based; conditions: 24 hours, serum free medium, OPLS 20 mM, F8 LC 1.38 μM, Lactadherin 0.15 μM, unit from b101
Method: The additives mentioned below (lactadherin, Factor VIII light chain and/or OPLS) were added to the culture medium and the cells were incubated for 24 hours following assaying of the culture fluid and the membrane bound fraction.

HKB11 cells [3] = assay: Transient co-expression with F8, FVIII coagulation activity (two-stage chromogenic assay, coa); assay type: cell-based; conditions: for displacement of F8 from the cell surface into the supernatant: in words
Method: (§1) HEK293 cells were maintained in commercial FreeStyle medium supplemented with 50 U/mL penicillin and 50 ug/mL streptomycin. Cells were grown as suspension cells in shakers and incubated at 37° C. under 5% CO2 and 95% relative humidity conditions.
(§2) Cells were seeded at a density of 3×10^5 cells/mL and passaged every 3-4 days. For transfection experiments the cell culture was scaled up until the target density was reached. Viable and total cell concentrations were evaluated by Cedex (Innovartis) analysis. The instrument uses image analysis software for automated cell counting and viable cells were identified based on their ability to exclude trypan blue.
(§3) Plasmid DNA was transfected into HKB11 cells by 293 fectin following the manufacturer's recommendations. Conditioned medium was harvested on indicated days following gentle centrifugation of the suspension culture. The cell pellet was resuspended in FreeStyle medium containing 0.5M NaCl and after gentle centrifugation, a sample, representing the FVIII attached to the cell membrane was taken. Samples were stored at −80° C. until analysis.
(§4) FVIII coagulation activity was measured by a two-stage chromogenic assay (Coamatic Factor VIII analysis kit, Chromogenix). Factor VIII:Ag assay was performed using polyclonal antibodies from Affinity Biologicals (F8C-EIA). Both assays were done following the manufactures instructions and with in-house B-domain deleted affinity purified Factor VIII as standard.

HKB11 cells [4] = assay: Transient co-expression with F8, Factor VIII:Ag ELISA; assay type: cell-based
Method: as §1, §2, §3, §4

Molecule: RAP: Receptor Associated Protein (RAP)
- % of total binding [1]: 106.6%
- reduction of membrane attached FVIII [1]: no effect

Molecule: Heparin
- % of total binding [1]: 86.8%
- reduction of membrane attached FVIII [1]: small but not significant effect

Molecule: N[C@@H](COP(=O)(O)O)C(=O)O [OPLS, Ortho-Phospho-L-serine, reference compound]
- supernatant average (activity of FVIII in the culture medium) [2]: 6000 mU/mL and 6347 mU/mL
- wash average (FVIII activity on the membrane) [2]: 1691 mU/mL
- % of total binding [1]: 68.4%
- reduction of membrane attached FVIII [1]: ~30%

B1: Annexin V: Ca++ dependent phospholipid-binding protein that react with phosphatidylserine (Sigma) (protein)
chain: MAQVLRGTVTDFPGFDERADAETLRKAMKGLGTDEESILTLLTSRSNAQRQEISAAFKTLFGRDLLDDLKSELTGKFEKLIVALMKPSRLYDAYELKHALKGAGTNEKVLTEIIASRTPEELRAIKQVYEEEYGSSLEDDVVGDTSGYYQRMLVVLLQANRDPDAGIDEAQVEQDAQALFQAGELKWGTDEEKFITIFGTRSVSHLRKVFDKYMTISGFQIEETIDRETSGNLEQLLLAVVKSIRSIPAYLAETLYYAMKGAGTDDHTLIRVMVSRSEIDLFNIRKEFRKNFATSLYSMIKGDTSGDYKKALLLLCGEDD
modifications: homo sapiens
- % of total binding [1]: 28.5%
- reduction of membrane attached FVIII [1]: ~70%

B2: Lactadherin: lactadherin, agent that binds to phosphatidylserine; added to medium or co-expressed with F8 (protein)
chain: LDICSKNPCHNGGLCEEISQEVRGDVFPSYTCTCLKGYAGNHCETKCVEPLGMENGNIANSQIAASSVRVTFLGLQHWVPELARLNRAGMVNAWTPSSNDDNPWIQVNLLRRMWVTGVVTQGASRLASHEYLKAFKVAYSLNGHEFDFIHDVNKKHKEFVGNWNKNAVHVNLFETPVEAQYVRLYPTSCHTACTLRFELLGCELNGCANPLGLKNNSIPDKQITASSSYKTWGLHLFSWNPSYARLDKQGNFNAWVAGSYGNDQWLQVDLGSSKEVTGIITQGARNFGSVQFVASYKVAYSNDSANWTEYQDPRTGSSKIFPGNWDNHSHKKNLFETPILARYVRILPVAWHNRIALRLELLGC
modifications: homo sapiens
notes: added to medium or co-expressed with F8
- displacement of F8 from the cell surface into the supernatant (HKB11 cells [3]; day 3, viability ~90%): effectively displacement
- displacement of F8 from the cell surface into the supernatant (HKB11 cells [3]; day 4, viability ~80%): could no longer keep F8 in the supernatant
- coa, supernatant (HKB11 cells [3]; harvest day 3, supernatant): 5448 +/− 122 mU/ml
- coa, wash (HKB11 cells [3]; harvest day 3, wash (0.5M NaCl, membrane attached FVIII)): 640 +/− 116 mU/ml
- coa, supernatant (HKB11 cells [3]; harvest day 4, supernatant): 1044 +/− 425 mU/ml
- coa, wash (HKB11 cells [3]; harvest day 4, wash (0.5M NaCl, membrane attached FVIII)): 3575 +/− 558 mU/ml
- coa, supernatant (HKB11 cells [3]; harvest day 5, supernatant): 327 +/− 13 mU/ml
- coa, wash (HKB11 cells [3]; harvest day 5, wash (0.5M NaCl, membrane attached FVIII)): 3510 +/− 46 mU/ml
- supernatant average (activity of FVIII in the culture medium) [2]: 8085 mU/mL
- wash average (FVIII activity on the membrane) [2]: 1406 mU/mL
- supernatant average (activity of FVIII in the culture medium) ([2]; listed as lactadherin): further increases the amount of FVIII in the culture medium
- wash average (FVIII activity on the membrane) ([2]; listed as lactadherin): a decline in membrane bound FVIII is observed
- FVIII ELISA, supernatant (HKB11 cells [4]; harvest day 3, supernatant): 530 ± 113 ng/mL
- FVIII ELISA, wash (HKB11 cells [4]; harvest day 3, wash): 67 ± 0 ng/mL
- FVIII ELISA, supernatant (HKB11 cells [4]; harvest day 4, supernatant): 270 ± 54 ng/mL
- FVIII ELISA, wash (HKB11 cells [4]; harvest day 4, wash): 278 ± 37 ng/mL
- FVIII ELISA, supernatant (HKB11 cells [4]; harvest day 5, supernatant): 108 ± 119 ng/mL
- FVIII ELISA, wash (HKB11 cells [4]; harvest day 5, wash): 287 ± 33 ng/mL
